This is an account of results in patent US20080187548A1 (LUDWIG INSTITUTE FOR CANCER RESEARCH, published 2008).

Some targets named below: HLA-DRB1*0101 (human); HLA-DRB1*0301 (human); HLA-DRB1*0401 (human); HLA-DRB1*0701 (human).
Assay in all cases: cell-based or functional assay

With TIRLTAADHRQLQLS [NY-ESO-1 peptide, amino acids 134-148 (TIRLTAADHRQLQLS; SEQ ID NO: 2)], the “Responding patients (%)” value with HLA-DRB1*0101 came out at 28.6%; in the experiment with HLA-DRB1*0301, 10%; with HLA-DRB1*0401 it was 28.6%; with HLA-DRB1*0701, 14.3%. Further, the “Responding patients (n = 38)” value was found to be 2 patients with HLA-DRB1*0101, 1 patients with HLA-DRB1*0301, 2 patients with HLA-DRB1*0401 and 1 patients with HLA-DRB1*0701.
